Laboratory results as given in PMC5570898.

Molecular target: CHL1 on ventral midbrain dopaminergic neurons (mouse (endogenous in ventral midbrain primary neurons)) (UniProt P70232)

increase of TH+ neurite branching in E12.5 VM primary cultures on bound CHL1, against the Fc control: 2.4 fold
increase of TH+ neurite branching in E12.5 VM primary cultures with soluble CHL1, against the PDL control: 5 fold
increase of TH+ neurite length in E12.5 VM primary cultures on bound CHL1, against the Fc control: 1.8 fold
increase of TH+ neurite length in E12.5 VM primary cultures with soluble CHL1, against the PDL control: 2 fold
Substance: CHL1 recombinant protein (from UniProt P70232 26-1083) (natural protein)
